Test results: patent US20100009920

Legend:
[1] = target: T1, GST-tagged EGFR-DEL1 (amino acid 692-891)
T1 chain: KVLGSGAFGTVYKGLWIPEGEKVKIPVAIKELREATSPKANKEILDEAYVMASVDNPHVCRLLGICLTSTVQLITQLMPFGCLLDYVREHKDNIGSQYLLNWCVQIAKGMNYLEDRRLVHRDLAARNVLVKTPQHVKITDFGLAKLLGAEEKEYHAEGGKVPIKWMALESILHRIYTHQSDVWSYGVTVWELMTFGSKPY

[2] = target: GST-tagged EGFR-DEL2 (Y992A) protein
[3] = target: T2, GST-tagged EGFR-DEL3 (amino acid 1046-1186)
T2 chain: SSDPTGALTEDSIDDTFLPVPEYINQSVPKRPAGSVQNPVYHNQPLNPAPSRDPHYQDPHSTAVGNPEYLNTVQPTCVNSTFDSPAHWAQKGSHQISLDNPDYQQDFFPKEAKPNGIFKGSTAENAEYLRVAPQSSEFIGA

[4] = target: GST-tagged EGFR-DEL2 protein (amino acid 889-1045)
[5] = target: T3, EGFR-DEL4 (amino acid 977-1045) protein
T3 chain: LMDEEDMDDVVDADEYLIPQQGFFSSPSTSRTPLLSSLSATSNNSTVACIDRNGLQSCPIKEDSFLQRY

[6] = target: catalytically-active recombinant GST-tagged human EGFR (active-rhEGFR; Upstate), P00533

B1: purified recombinant His-tagged TTK (protein)
chain: MESEDLSGRELTIDSIMNKVRDIKNKFKNEDLTDELSLNKISADTTDNSGTVNQIMMMANNPEDWLSLLLKLEKNSVPLSDALLNKLIGRYSQAIEALPPDKYGQNESFARIQVRFAELKAIQEPDDARDYFQMARANCKKFAFVHISFAQFELSQGNVKKSKQLLQKAVERGAVPLEMLEIALRNLNLQKKQLLSEEEKKNLSASTVLTAQESFSGSLGHLQNRNNSCDSRGQTTKARFLYGENMPPQDAEIGYRNSLRQTNKTKQSCPFGRVPVNLLNSPDCDVKTDDSVVPCFMKRQTSRSECRDLVVPGSKPSGNDSCELRNLKSVQNSHFKEPLVSDEKSSELIITDSITLKNKTESSLLAKLEETKEYQEPEVPESNQKQWQSKRKSECINQNPAASSNHWQIPELARKVNTEQKHTTFEQPVFSVSKQSPPISTSKWFDPKSICKTPSSNTLDDYMSCFRTPVVKNDFPPACQLSTPYGQPACFQQQQHQILATPLQNLQVLASSSANECISVKGRIYSILKQIGSGGSSKVFQVLNEKKQIYAIKYVNLEEADNQTLDSYRNEIAYLNKLQQHSDKIIRLYDYEITDQYIYMVMECGNIDLNSWLKKKKSIDPWERKSYWKNMLEAVHTIHQHGIVHSDLKPANFLIVDGMLKLIDFGIANQMQPDTTSVVKDSQVGTVNYMPPEAIKDMSSSRENGKSKSKISPKSDVWSLGCILYYMTYGKTPFQQIINQISKLHAIIDPNHEIEFPDIPEKDLQDVLKCCLKRDPKQRISIPELLAHPYVQIQTHPVNQMAKGTTEEMKYVLGQLVGLNSPNSILKAAKTLYEHYSGGESHNSSSSKTFEKKRGKK
[1]
  tyrosine phosphorylation (in vitro kinase assay, western blot): other tyrosine residues in GST-tagged EGFR-DEL1 (amino acid 692-891), EGFR-DEL2 and EGFR-DEL3 (amino acid 1046-1186) proteins were not phosphorylated at all
[2]
  32P incorporation ([gamma-32P] ATP in vitro kinase assay, autoradiography): This mutation remarkably reduced the intensity of lower-band, but did not reduce that of upper-band
[3]
  tyrosine phosphorylation (in vitro kinase assay, western blot): other tyrosine residues in GST-tagged EGFR-DEL1 (amino acid 692-891), EGFR-DEL2 and EGFR-DEL3 (amino acid 1046-1186) proteins were not phosphorylated at all
[4]
  phosphorylation of EGFR Tyr-992 (in vitro kinase assay, western blot): Phosphorylation of EGFR Tyr-992 in GST-tagged EGFR-DEL2 protein (amino acid 889-1045) was promoted in a TTK-dose dependent manner
  phosphorylation site by MALDI tandem mass spectrometry after in vitro phosphorylation: phosphorylation of EGFR Ser-967 was identified (data not shown)
[5]
  phosphorylation of EGFR Tyr-992 (in vitro kinase assay): EGFR-DEL4 (amino acid 977-1045) protein was not phosphorylated at Tyr-992 (data not shown)
[6]
  tyrosine phosphorylation of active-rhEGFR (in vitro kinase assay, anti-phospho-tyrosine western blot): the phosphorylation of active-rhEGFR by TTK was not inhibited by AG1478
